Test results taken from US20160272694A1 (EDIMER PHARMACEUTICALS, published 2016).

Molecular target: T1, Recombinant human IgG1 Fc (hFc) (human, UniProt P01857-1 100-330 = IgG part)
T1 construct: domain: Fc; Bought reagent; also called Recombinant Human IgG Fc
Test: sandwich ELISA: hEDAR-mFc coated, anti-human IgG (Fc) CH2-HRP detection
Description: For validation, ELISA plates (96-well Microtiter Plates, Nunc 96F Maxisorp (Thermo Fisher, Pittsburgh, Pa.)) were coated with 1 μg/mL hEDARmFc coating solution. For the binding step, standards, QCs, Blank (assay buffer alone), and other required samples were added to the appropriate wells of an assay plate. Plates were incubated for approximately 120 minutes and then washed. For the detection step, the detection reagent was added to each required well and the plate was incubated for approximately 60 minutes and then washed. For the substrate step, Ultra TMB (1-Step Ultra TMB-ELISA Substrate (Thermo Scientific, Pittsburgh, Pa.)) was added to each well and the plate was incubated for approximately 20 to 30 minutes. Color development was monitored at 650 nm so that development could be discontinued when the OD of the 250 ng/mL standard was between 1.3 and 1.4. To stop the color reaction, 2N sulfuric acid was added to each well. The OD at 450 nm was determined with the correction wavelength set at 540 nm.

B1: hEDAR-mFc (Fc fusion, human, UniProt Q9UNE0 27-183, looked up)
chain: EYSNCGENEYYNQTTGLCQECPPCGPGEEPYLSCGYGTKDEDYGCVPCPAEKFSKGGYQICRRHKDCEGFFRATVLTPGDMENDAECGPCLPGYYMLENRPRNIYGMVCYSCLLAPPNTKECVGATSGASANFPGTSGSSTLSPFQHAHKELSGQGH
notes: Capture reagent from Edimer Pharmaceuticals, coated at 1 µg/mL; also called capture reagent; not shown: mouse Fc (mFc)
B1: no binding (tested: 100 ng/mL).
